We go through 11 molecules from patent US20190359704A1 (Chugai, published 2019).

Residue numbers refer to the chain shown, from its start.

The target of assay [1] is T1, human IL-6 receptor (soluble hIL-6R) (human, UniProt P08887 20-357, limits assumed, biotin-labeled in the ELISA experiments (sites not given)).
T1 construct: also called biotin-labeled hIL-6R
T1 sequence: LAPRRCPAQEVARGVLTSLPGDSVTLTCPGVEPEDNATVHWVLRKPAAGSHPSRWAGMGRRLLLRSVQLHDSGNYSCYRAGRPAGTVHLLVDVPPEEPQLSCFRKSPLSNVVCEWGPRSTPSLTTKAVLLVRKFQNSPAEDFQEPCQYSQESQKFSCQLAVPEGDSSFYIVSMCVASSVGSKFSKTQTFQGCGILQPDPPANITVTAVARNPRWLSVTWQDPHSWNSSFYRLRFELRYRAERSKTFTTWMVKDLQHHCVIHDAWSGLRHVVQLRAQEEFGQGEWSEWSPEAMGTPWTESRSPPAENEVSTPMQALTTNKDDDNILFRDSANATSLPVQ
Nature of the assay: SPR Biacore T200, antibody captured on protein A CM5 chip, IL-6R analyte, 25 C, with 100 µmol/l kynurenine; SPR, antibody captured on the chip, IL-6R as analyte, 100 µmol/l kynurenine. On the procedure: Each parameter was calculated using the Biacore T200 Evaluation Software (GE Healthcare).

The target of assay [2] is T1, human IL-6 receptor (soluble hIL-6R). Nature of the assay: ELISA, biotin-labeled hIL-6R on streptavidin plate, absorbance 450 nm; seven conditions of Table 18. Background: In an ELISA, binding on a coated surface is turned into a signal by an enzyme label.
A further assay deals with T2, human serum albumin (human, UniProt P02768 25-609, biotin-labeled (sites not given)).
T2 construct: also called HSA; biotin-labeled HSA
Nature of the assay: ELISA, biotin-labeled HSA on streptavidin plate, absorbance 450 nm; nine small-molecule conditions of Table 3.

Assay [3] has as its target T3, human IL-6 (human, biotin-labeled in the ELISA experiments (sites not given)).
T3 construct: ELISA used biotin-labeled human IL-6; SPR used human IL-6 from Kamakura Techno-Science, Inc; also called biotin-labeled human IL-6
Nature of the assay: SPR Biacore T200, A11 captured on protein A/G CM5 chip, human IL-6 analyte, 37 C, running buffer with 100 µmol/l kynurenine; SPR kinetics, A11 captured on the chip, IL-6 analyte, 100 µmol/l kynurenine. The procedure:
Sensor chip CM5 (GE Healthcare) was immobilized with an appropriate amount of protein A/G (Invitrogen) by amine coupling. Antibodies of interest were captured by the chip to allow interaction to IL-6 as an antigen. The two types of running buffers used were 10 mmol/1 ACES, 150 mmol/l NaCl, 0.05% (w/v) Tween20, 100 μmol/l kynurenine, pH 7.4, and 10 mmol/1 ACES, 150 mmol/l NaCl, 0.05% (w/v) Tween20, pH 7.4. The interaction with IL-6 as an antigen was assessed at 37° C. The buffer used to dilute IL-6 was the same running buffer as described above.
Then, the running buffer was injected at a flow rate of 5 μl/min for three minutes. After observation of human IL-6 dissociation from the antibody, 10 mmol/l glycine-HCl (pH 1.5) was injected at a flow rate of 30 μl/min for 30 seconds to regenerate the sensor chip. […] Each parameter was calculated using the Biacore T200 Evaluation Software (GE Healthcare).
Background: In SPR one partner is held on a chip, and binding of the other changes the refractive index at the surface.

Assay [4] deals with T3, human IL-6. Nature of the assay: SPR (Biacore T200), A11 immobilised on CM5, 1 µmol/L IL-6 as analyte for 60 s, 25 °C, kynurenine concentration varied (axis in µmol/L). The procedure: The running buffer used was 10 mmol/1 ACES, 150 mmol/l NaCl, 0.05% (w/v) Tween20, pH 7.4. […] All was immobilized onto sensor chip CM5 by amine coupling, and as an analyte IL-6 was diluted to 1 μmol/l with 10 mmol/1 ACES, 150 mmol/l NaCl, 0.05% (w/v) Tween20, pH 7.4 containing kynurenine at various concentrations, and allowed to interact for 60 seconds to observe changes in the amount of binding.

In assay [5] the target is T1, human IL-6 receptor (soluble hIL-6R). Nature of the assay: SPR Biacore T200, IL-6R immobilised on CM5, antibody analyte in a concentration series, 1 mM ATP, 25 C; KD from plot of equilibrium value against antibody concentration; SPR, IL-6R on the chip, antibody concentration series, 1 mM ATP, 25 C. The procedure: The running buffer was used: 20 mmol/1 ACES, 150 mmol/l NaCl, 0.05% (w/v) Tween20, pH 7.4. Assay was carried out at 25° C. […] For dilution of the antibodies, the running buffer or the running buffer containing any one of ATP, ADP, AMP, cAMP, and adenosine (ADO) were used. The final concentration of each small molecule and the final concentration of each antibody were adjusted to 1 mM and 1 μM, respectively. Meanwhile, under the 1 mM ATP condition, assay was carried out with a series of stepwise antibody concentrations. The dissociation constant KD (mol/L) of each clone for IL-6R was calculated from a plot of equilibrium value against antibody concentration. The parameters were calculated using the Biacore T200 Evaluation Software (GE Healthcare).

The target of assay [6] is T4, membrane-type human IL-6R expressed on cells (human, UniProt P08887 20-468).
T4 construct: These are Ba/F3 cells (BaF/hIL-6R, WO2012/073992) or CHO cells expressing human IL-6 receptor; also called hIL-6R expressed on cell membrane; cell-membrane hIL-6R
T4 sequence: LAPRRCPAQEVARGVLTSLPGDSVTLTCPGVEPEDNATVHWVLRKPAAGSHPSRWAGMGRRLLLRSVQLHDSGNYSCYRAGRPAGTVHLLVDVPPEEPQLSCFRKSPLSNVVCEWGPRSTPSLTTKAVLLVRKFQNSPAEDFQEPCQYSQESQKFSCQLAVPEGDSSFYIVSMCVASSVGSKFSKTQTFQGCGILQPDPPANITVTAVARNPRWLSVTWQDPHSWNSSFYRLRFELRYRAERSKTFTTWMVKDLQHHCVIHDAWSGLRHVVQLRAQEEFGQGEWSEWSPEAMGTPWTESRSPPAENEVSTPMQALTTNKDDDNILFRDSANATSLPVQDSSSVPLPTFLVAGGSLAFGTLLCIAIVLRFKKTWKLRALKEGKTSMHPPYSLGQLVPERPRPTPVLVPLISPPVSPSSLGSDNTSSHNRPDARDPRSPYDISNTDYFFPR
In words: flow cytometry, BaF/hIL-6R cells, secondary antibody against the constant region, with or without 100 µM kynurenine. On the procedure: An appropriate number of BaF/hIL-6R cells were prepared and blocked with PBS containing 2% FBS on ice for one hour or more. […] In this step, the antibodies were contacted with cell-membrane hIL-6R on ice for 30 minutes. […] Then, in the presence or absence of kynurenine, the complex was contacted with a secondary antibody (Beckman Coulter IM1627) that recognizes the antibody constant region. After 30 minutes of incubation with the antibody on ice, the cells were again washed with Wash Buffer and then re-suspended in PBS/2% FBS.
(In flow cytometry, cells or beads pass a laser one at a time.)

Protocol for human serum albumin: Meanwhile, each small molecule was appropriately prepared at the concentrations shown in Table 3 using the buffers indicated in Table 19. Biotin-labeled HSA was used as the antigen.
First, a StreptaWell 96 microtiter plate (Roche) was coated at room temperature for one hour or more with 100 μl of PBS containing biotin-labeled HSA. After washing with Wash buffer to remove unbound biotin-labeled HSA from the plate, each well was blocked for one hour or more with 250 μl of Blocking Buffer. After Blocking Buffer was removed from each well, the purified IgGs were prepared to 2.5 μg/ml in Sample Buffer containing small molecules at the final concentrations shown in Table 3, and each was aliquoted at 100 μl into the plate. The plate was allowed to stand at room temperature for one hour to allow binding of each IgG to biotin-labeled HSA in each well. After washing with Wash Buffer containing small molecules at the final concentrations shown in Table 3, an HRP-conjugated anti-human IgG antibody (BIOSOURCE) diluted with Sample Buffer containing the same small molecules was added to each well. The plate was incubated for one hour. Following wash with Wash Buffer containing each small molecule, the TMB single solution (ZYMED) was added to each well. The chromogenic reaction in the solution of each well was terminated by adding sulfuric acid.

B1: 6RNMSC1-2_F02 (antibody, human IgG1, kappa)
heavy: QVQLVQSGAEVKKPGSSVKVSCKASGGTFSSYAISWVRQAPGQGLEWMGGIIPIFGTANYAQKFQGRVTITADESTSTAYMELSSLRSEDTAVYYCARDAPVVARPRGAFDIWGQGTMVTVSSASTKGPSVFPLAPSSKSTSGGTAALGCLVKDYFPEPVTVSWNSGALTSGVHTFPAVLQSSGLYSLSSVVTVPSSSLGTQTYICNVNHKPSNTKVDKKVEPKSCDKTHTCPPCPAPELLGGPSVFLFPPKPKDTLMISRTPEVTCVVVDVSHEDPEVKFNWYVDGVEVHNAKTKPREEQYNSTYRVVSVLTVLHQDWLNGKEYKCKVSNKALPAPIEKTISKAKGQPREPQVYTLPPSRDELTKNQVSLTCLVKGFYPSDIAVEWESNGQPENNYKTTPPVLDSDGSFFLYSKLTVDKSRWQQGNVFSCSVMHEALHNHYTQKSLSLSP
light: DIVMTQTPLSSPVTLGQPASISCRSSQSLVHSDGNTYLSWLQQRPGQPPRLLIHEISNRFSGVPDRFSGSGAGTNFTLKISRVEAEDVGVYYCMQATQFPRTFGQGTKVEIKRTVAAPSVFIFPPSDEQLKSGTASVVCLLNNFYPREAKVQWKVDNALQSGNSQESVTEQDSKDSTYSLSSTLTLSKADYEKHKVYACEVTHQGLSSPVTKSFNRGEC
notes: also called clone 6RNMSC1-2_F02
With B1, the affinity in assay [1], expressed as Kd, was 1.5 µM.

B2: GC413 (antibody, human IgG1, kappa, L234A L235A, N297A, V domains shown)
VH: QVQLVQSGAEVKKPGASVKVSCKASGYTFTDYEMHWIRQPPGQGLEWIGAIDPKTGDTAYSQKFKGRVTLTADKSTSTAYMELSSLTSEDTAVYYCTRFYSYTYWGQGTLVTVSS
VL: DIVMTQSPLSLPVTPGEPASISCRSSQSLVHSNRNTYLHWYQQKPGQAPRLLIYKVSNRFSGVPDRFSGSGSGTDFTLKISRVEAEDVGVYYCSQNTHVPPTFGQGTKLEIKR
notes: also called anti-human glypican 3 antibody GC413; anti-human glypican-3 antibody GC413
Turning to B2, the binding result (in assay [2]; in the assay with human serum albumin) was “no binding (tested: 2.5 µg/ml)” throughout.

B3: I6NMSC1-3_A11 (antibody, human IgG1, lambda, V domains shown)
VH: QVQLQESGGGVVQPGRSLRLSCAASGFTFSSYAMHWVRQAPGKGLEWVAVISYDGSNKYYADSVKGRFTISRDNSKNTLYLQMNSLRAEDTAVYYCARDAVTGDDWYFDLWGRGTLVTVSS
VL: SYELTQPPSVSVAPGKTARITCGGNNIGSKSVHWYQQKPGQAPVLVVYDDSDRPSGIPERFSGSNSGNTATLTISRVEAGDEADYYCQVWDSSSDHPVFGGGTKLTVLG
With B3, binding with human IL-6 [3] was put at a Kd of 1 µM. For the same molecule, the “KD printed beside the curve of IL-6 binding against the kynurenine concentration (per paragraph 715 the KD of kynurenine for forming the A11/IL-6/kynurenine complex, not the antibody-antigen KD)” value with human IL-6 [4] was determined as 0.032 µM.

B4: 6RAD2C1-4_001 (antibody, human IgG1, kappa, V domains shown)
VH: EVQLVESGGDLVKPGGGLRLSCAASGFTFSGHTMNWVRQAPGKGLEWVSSISSRSNYIYYADSVKGRFTISRDNAKNSLYLQMNSLRAEDTAVYYCARYGRLHDRNWVFDYWGQGTLVTVSS
VL: QSALTQPPSASGSPGQTVTISCTGTSTDVGDYNYVSWYQQHPGKAPKLMIYQVSKKPSGVPDRFSGSKSGNTASLTVSGLQAEDEADYFCSSRSYGAGVVFGGGTKLTVLR
notes: also called 6RAD2C1-4_01
The molecule B4 showed a Kd in assay [5] of 0.3 µM.

B5: 6RAD2C1-4_076 (antibody, human IgG1, kappa, V domains shown)
VH: B4 VH with H32Y, N56S, Y59D, R101A, H103G, D104Q
VL: QSALTQPPSASGSPGQTVTISCTGTSTDVGDYNYVSWYQQHPGKAPKLMIYQTSKRPSGVPDRFSGSKSGNTASLTVSGLQAEDEADYFCSSRSIKHPVFGGGTKLTVLR
notes: also called 6RAD2C1-4_76
B5: the Kd in assay [5] was 0.25 µM.

B6: 6RDL3C1-4_085 (antibody, human IgG1, kappa, V domains shown)
VH: B4 VH
VL: B4 VL
notes: also called 6RDL3C1-4_85
B6: in assay [5], the Kd was found to be 0.39 µM.

B7: 6RAD2C1-4_030 (antibody, human IgG1, kappa, V domains shown)
VH: B4 VH with G31S, H32Y, N56G, I58A, Y99F, R101A, H103N, D104T, R105L
VL: B4 VL with S92T, S94T, Y95A, G96N, V100L
notes: also called 6RAD2C1-4_30
B7 had a Kd in assay [5] of 0.33 µM.

B8: 6RAD2C1-4_011 (antibody, human IgG1, kappa, V domains shown)
VH: B4 VH with N56S, R101A, H103G, D104Q, R105M
VL: B4 VL with Q52S, K56R, Y95S, G96S, A97M, G98N, V100L
notes: also called 6RAD2C1-4_11
B8 had a Kd in assay [5] of 0.23 µM.

B9: 6RAD2C1-4_026 (antibody, human IgG1, kappa, V domains shown)
VH: B4 VH with H32Y, I58A, Y59H, H103G
VL: B4 VL with D31A, Q52K, S92L, S94A, Y95A, G96T, A97T, V100L
notes: also called 6RAD2C1-4_26
Consider B9, for which binding in assay [5] was characterised by a dissociation constant (Kd) of 0.21 µM.

B10: 6RAD2C1-4_005 (antibody, human IgG1, kappa, V domains shown)
VH: B4 VH with G31T, N56S, Y59H, Y99F, R101K, H103G, D104E
VL: B4 VL with S92V, Y95D, A97H, V99P, V100M
notes: also called 6RAD2C1-4_05
In assay [5], B10 registered a Kd of 0.34 µM.

B11: MRA (antibody, human IgG1, kappa, V domains shown)
VH: QVQLQESGPGLVRPSQTLSLTCTVSGYSITSDHAWSWVRQPPGRGLEWIGYISYSGITTYNPSLKSRVTMLRDTSKNQFSLRLSSVTAADTAVYYCARSLARTTAMDYWGQGSLVTVSS
VL: DIQMTQSPSSLSASVGDRVTITCRASQDISSYLNWYQQKPGKAPKLLIYYTSRLHSGVPSRFSGSGSGTDFTFTISSLQPEDIATYYCQQGNTLPYTFGQGTKVEIKR
notes: also called known anti-human IL-6R antibody MRA; control antibody MRA
For the molecule B11, the binding result in assay [6] is on record as “binds”.

Usually Kd stands for the equilibrium constant for the complex coming apart.
